The supplement of paper PMC9428881
± gives the standard error.

Assay: background-corrected fluorescence of 3'-dye-labeled ssDNA relative to brightest sequence (3'-GCGCG) (fraction); higher = brighter dye fluorescence (less quenching)
Procedure: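 Single-stranded DNA is synthesized in situ on glass microarrays by 5'->3' photolithographic synthesis, with a Cy3 or Cy5 phosphoramidite coupled at the 3' end next to all 1024 permuted pentamers P1-P5. The construct is 5'-T5-(ACGT minus P5..P1 trinucleotides)-T15-P5P4P3P2P1-dye-3'; the dye is a 3' terminal modification, not part of the sequence. Arrays were scanned at 532 nm (Cy3) or 635 nm (Cy5), background from unlabeled oligos was subtracted, and values are averaged over 10 replicate features per array and at least 3 independent syntheses.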

Sequence | background-corrected fluorescence (dye: Cy3 (3' terminal)) | background-corrected fluorescence (dye: Cy5 (3' terminal))
TTTTTGCATCAGCAGCATGATTTTTTTTTTTTTTTTGTTC [CTTGT] | 0.433 ± 0.0082 | 0.31 ± 0.025
TTTTTGCATCAGCAGCATGCTTTTTTTTTTTTTTTTGTTA [ATTGT] | 0.51 ± 0.02 | 0.415 ± 0.023
TTTTTGCATCAGCATCAGCATTTTTTTTTTTTTTTTGTGT | 0.603 ± 0.025 | 0.497 ± 0.026
TTTTTGCATCAGCATCATCATTTTTTTTTTTTTTTTGTGG [GGTGT] | 0.585 ± 0.06 | 0.511 ± 0.029
TTTTTGCATCAGCATCATGATTTTTTTTTTTTTTTTGTGC [CGTGT] | 0.494 ± 0.0099 | 0.402 ± 0.027
TTTTTGCATCAGCATCATGCTTTTTTTTTTTTTTTTGTGA [AGTGT] | 0.68 ± 0.026 | 0.564 ± 0.039
TTTTTGCATCAGCATGAGCATTTTTTTTTTTTTTTTGTCT [TCTGT] | 0.48 ± 0.021 | 0.367 ± 0.028
TTTTTGCATCAGCATGATCATTTTTTTTTTTTTTTTGTCG [GCTGT] | 0.552 ± 0.029 | 0.392 ± 0.023
TTTTTGCATCAGCATGATGATTTTTTTTTTTTTTTTGTCC [CCTGT] | 0.401 ± 0.014 | 0.289 ± 0.018
TTTTTGCATCAGCATGATGCTTTTTTTTTTTTTTTTGTCA [ACTGT] | 0.487 ± 0.069 | 0.439 ± 0.08
TTTTTGCATCAGCATGCGCATTTTTTTTTTTTTTTTGTAT [TATGT] | 0.53 ± 0.024 | 0.418 ± 0.031
TTTTTGCATCAGCATGCTCATTTTTTTTTTTTTTTTGTAG [GATGT] | 0.535 ± 0.015 | 0.443 ± 0.064
TTTTTGCATCAGCATGCTGATTTTTTTTTTTTTTTTGTAC [CATGT] | 0.471 ± 0.041 | 0.344 ± 0.022
TTTTTGCATCAGCATGCTGCTTTTTTTTTTTTTTTTGTAA [AATGT] | 0.596 ± 0.019 | 0.478 ± 0.03
TTTTTGCATCATCAGCAGCATTTTTTTTTTTTTTTTGGTT | 0.624 ± 0.019 | 0.477 ± 0.037
TTTTTGCATCATCAGCATCATTTTTTTTTTTTTTTTGGTG [GTGGT] | 0.568 ± 0.028 | 0.456 ± 0.022
TTTTTGCATCATCAGCATGATTTTTTTTTTTTTTTTGGTC [CTGGT] | 0.478 ± 0.024 | 0.387 ± 0.04

Sequence | background-corrected fluorescence (dye: Cy3 (3' terminal)) | background-corrected fluorescence (dye: Cy5 (3' terminal))
TTTTTGCATCATCAGCATGCTTTTTTTTTTTTTTTTGGTA [ATGGT] | 0.609 ± 0.0091 | 0.492 ± 0.033
TTTTTGCATCATCATCAGCATTTTTTTTTTTTTTTTGGGT | 0.686 ± 0.028 | 0.586 ± 0.044
TTTTTGCATCATCATCATCATTTTTTTTTTTTTTTTGGGG [GGGGT] | 0.66 ± 0.023 | 0.613 ± 0.042
TTTTTGCATCATCATCATGATTTTTTTTTTTTTTTTGGGC [CGGGT] | 0.591 ± 0.026 | 0.516 ± 0.027
TTTTTGCATCATCATCATGCTTTTTTTTTTTTTTTTGGGA [AGGGT] | 0.757 ± 0.01 | 0.725 ± 0.054
TTTTTGCATCATCATGAGCATTTTTTTTTTTTTTTTGGCT [TCGGT] | 0.549 ± 0.017 | 0.442 ± 0.053
TTTTTGCATCATCATGATCATTTTTTTTTTTTTTTTGGCG [GCGGT] | 0.631 ± 0.026 | 0.516 ± 0.065
TTTTTGCATCATCATGATGATTTTTTTTTTTTTTTTGGCC [CCGGT] | 0.46 ± 0.032 | 0.369 ± 0.03
TTTTTGCATCATCATGATGCTTTTTTTTTTTTTTTTGGCA [ACGGT] | 0.562 ± 0.015 | 0.472 ± 0.032
TTTTTGCATCATCATGCGCATTTTTTTTTTTTTTTTGGAT [TAGGT] | 0.617 ± 0.023 | 0.458 ± 0.036
TTTTTGCATCATCATGCTCATTTTTTTTTTTTTTTTGGAG [GAGGT] | 0.589 ± 0.02 | 0.494 ± 0.035
TTTTTGCATCATCATGCTGATTTTTTTTTTTTTTTTGGAC [CAGGT] | 0.5012 ± 0.0043 | 0.404 ± 0.046
TTTTTGCATCATCATGCTGCTTTTTTTTTTTTTTTTGGAA [AAGGT] | 0.653 ± 0.024 | 0.557 ± 0.029
TTTTTGCATCATGAGCAGCATTTTTTTTTTTTTTTTGCTT [TTCGT] | 0.514 ± 0.029 | 0.384 ± 0.038
TTTTTGCATCATGAGCATCATTTTTTTTTTTTTTTTGCTG [GTCGT] | 0.463 ± 0.018 | 0.358 ± 0.022
TTTTTGCATCATGAGCATGATTTTTTTTTTTTTTTTGCTC [CTCGT] | 0.374 ± 0.037 | 0.296 ± 0.036
